The supplement of paper PMC10567573

B1: TMEM120A (parent)
chain: YQSFVQFLQYYYQSGCLYRLRALG
B2: ALDH8A1 (parent)
chain: RVAKKLQSGLVWTNCWLIRELNLP

Variants of: B1
Experiment: protein stability index of a GFP-peptide fusion (GPS, HEK-293T) (PSI 1-6); higher = more stable
Conditions: c terminus: a fixed tail appended
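Note: lentivirally expressed fusions sorted by FACS into six bins by GFP to DsRed ratio, PSI derived from sequencing read proportions per bin multiplied by bin number.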

Question: Which protein stability index does the source give for YISFVQFLQYYYQSGCLYRLRALG [Q2I] here?
Answer: 2.65

Question: With YFSFVQFLQYYYQSGCLYRLRALG [Q2F] as the variant, how does the protein stability index read?
Answer: 3.7

Question: For YYSFVQFLQYYYQSGCLYRLRALG [Q2Y], which protein stability index is on record?
Answer: 1.83

Question: Which protein stability index does the source give for YLSFVQFLQYYYQSGCLYRLRALG [Q2L] here?
Answer: 3.88

Question: Which protein stability index does the source give for YRSFVQFLQYYYQSGCLYRLRALG [Q2R] here?
Answer: 1.21

Question: Which protein stability index does the source give for YASFVQFLQYYYQSGCLYRLRALG [Q2A] here?
Answer: 2.37

Question: With YMSFVQFLQYYYQSGCLYRLRALG [Q2M] as the variant, how does the protein stability index read?
Answer: 3.47

Question: With YESFVQFLQYYYQSGCLYRLRALG [Q2E] as the variant, how does the protein stability index read?
Answer: 3.02

Question: For YSSFVQFLQYYYQSGCLYRLRALG [Q2S], which protein stability index is on record?
Answer: 2.29

Question: Which protein stability index does the source give for YWSFVQFLQYYYQSGCLYRLRALG [Q2W] here?
Answer: 1.21

Question: For YQSFQQFLQYYYQSGCLYRLRALG [V5Q], which protein stability index is on record?
Answer: 1.89

Question: Which protein stability index does the source give for YQSFFQFLQYYYQSGCLYRLRALG [V5F] here?
Answer: 2.25

Question: For YQSFIQFLQYYYQSGCLYRLRALG [V5I], which protein stability index is on record?
Answer: 3.51

Question: Which protein stability index does the source give for YQSFNQFLQYYYQSGCLYRLRALG [V5N] here?
Answer: 4.88

Question: For YQSFCQFLQYYYQSGCLYRLRALG [V5C], which protein stability index is on record?
Answer: 2.31

Question: With YQSFMQFLQYYYQSGCLYRLRALG [V5M] as the variant, how does the protein stability index read?
Answer: 2.91

Question: For YQSFHQFLQYYYQSGCLYRLRALG [V5H], which protein stability index is on record?
Answer: 2.39

Question: Which protein stability index does the source give for YQSFRQFLQYYYQSGCLYRLRALG [V5R] here?
Answer: 3.82

Question: For YQSFKQFLQYYYQSGCLYRLRALG [V5K], which protein stability index is on record?
Answer: 2.62

Question: With YQHFVQFLQYYYQSGCLYRLRALG [S3H] as the variant, how does the protein stability index read?
Answer: 2.33

Question: With YQRFVQFLQYYYQSGCLYRLRALG [S3R] as the variant, how does the protein stability index read?
Answer: 2.35

Question: With YQAFVQFLQYYYQSGCLYRLRALG [S3A] as the variant, how does the protein stability index read?
Answer: 1.05

Question: For YQDFVQFLQYYYQSGCLYRLRALG [S3D], which protein stability index is on record?
Answer: 3.12

Question: Which protein stability index does the source give for YQTFVQFLQYYYQSGCLYRLRALG [S3T] here?
Answer: 2.88

Question: With YQVFVQFLQYYYQSGCLYRLRALG [S3V] as the variant, how does the protein stability index read?
Answer: 3.32

Question: For YQYFVQFLQYYYQSGCLYRLRALG [S3Y], which protein stability index is on record?
Answer: 4.62

Question: Which protein stability index does the source give for YQMFVQFLQYYYQSGCLYRLRALG [S3M] here?
Answer: 3.7

Question: With YQPFVQFLQYYYQSGCLYRLRALG [S3P] as the variant, how does the protein stability index read?
Answer: 3.24

Question: For YQLFVQFLQYYYQSGCLYRLRALG [S3L], which protein stability index is on record?
Answer: 3.8

Question: With YQNFVQFLQYYYQSGCLYRLRALG [S3N] as the variant, how does the protein stability index read?
Answer: 2.12

Question: Which protein stability index does the source give for YQSFVNFLQYYYQSGCLYRLRALG [Q6N] here?
Answer: 2.48

Question: Which protein stability index does the source give for YQSFVVFLQYYYQSGCLYRLRALG [Q6V] here?
Answer: 2.92

Question: Which protein stability index does the source give for YQSFVWFLQYYYQSGCLYRLRALG [Q6W] here?
Answer: 3.03

Question: Which protein stability index does the source give for YQSFVLFLQYYYQSGCLYRLRALG [Q6L] here?
Answer: 3.11

Question: Which protein stability index does the source give for YQSFVGFLQYYYQSGCLYRLRALG [Q6G] here?
Answer: 3.6

Question: For YQSFVEFLQYYYQSGCLYRLRALG [Q6E], which protein stability index is on record?
Answer: 1.84

Question: For YQSFVFFLQYYYQSGCLYRLRALG [Q6F], which protein stability index is on record?
Answer: 1.8

Question: Which protein stability index does the source give for YQSFVDFLQYYYQSGCLYRLRALG [Q6D] here?
Answer: 3.22

Question: For YQSFVRFLQYYYQSGCLYRLRALG [Q6R], which protein stability index is on record?
Answer: 2.24

Question: With YQSFVQDLQYYYQSGCLYRLRALG [F7D] as the variant, how does the protein stability index read?
Answer: 1.8

Question: With YQSFVQHLQYYYQSGCLYRLRALG [F7H] as the variant, how does the protein stability index read?
Answer: 1.62

Question: Which protein stability index does the source give for YQSFVQSLQYYYQSGCLYRLRALG [F7S] here?
Answer: 1.04

Question: For YQSFVQILQYYYQSGCLYRLRALG [F7I], which protein stability index is on record?
Answer: 2.33

Question: With YQSFVQTLQYYYQSGCLYRLRALG [F7T] as the variant, how does the protein stability index read?
Answer: 2.28

Question: With YQSFVQWLQYYYQSGCLYRLRALG [F7W] as the variant, how does the protein stability index read?
Answer: 3.54

Question: For YQSFVQNLQYYYQSGCLYRLRALG [F7N], which protein stability index is on record?
Answer: 3.1

Question: With YQSFVQLLQYYYQSGCLYRLRALG [F7L] as the variant, how does the protein stability index read?
Answer: 3.51

Question: With EQSFVQFLQYYYQSGCLYRLRALG [Y1E] as the variant, how does the protein stability index read?
Answer: 1.49

Question: For KQSFVQFLQYYYQSGCLYRLRALG [Y1K], which protein stability index is on record?
Answer: 2.19

Question: With IQSFVQFLQYYYQSGCLYRLRALG [Y1I] as the variant, how does the protein stability index read?
Answer: 2.24

Question: Which protein stability index does the source give for FQSFVQFLQYYYQSGCLYRLRALG [Y1F] here?
Answer: 3.06

Question: With QQSFVQFLQYYYQSGCLYRLRALG [Y1Q] as the variant, how does the protein stability index read?
Answer: 2.83

Question: With MQSFVQFLQYYYQSGCLYRLRALG [Y1M] as the variant, how does the protein stability index read?
Answer: 2.68

Question: With SQSFVQFLQYYYQSGCLYRLRALG [Y1S] as the variant, how does the protein stability index read?
Answer: 1.86

Question: Which protein stability index does the source give for YQSLVQFLQYYYQSGCLYRLRALG [F4L] here?
Answer: 3.35

Question: Which protein stability index does the source give for YQSPVQFLQYYYQSGCLYRLRALG [F4P] here?
Answer: 2.47

Question: For YQSTVQFLQYYYQSGCLYRLRALG [F4T], which protein stability index is on record?
Answer: 3.43

Question: Which protein stability index does the source give for YQSWVQFLQYYYQSGCLYRLRALG [F4W] here?
Answer: 2.8

Question: Which protein stability index does the source give for YQSIVQFLQYYYQSGCLYRLRALG [F4I] here?
Answer: 3.47

Question: Which protein stability index does the source give for YQSDVQFLQYYYQSGCLYRLRALG [F4D] here?
Answer: 1.31

Question: For YQSSVQFLQYYYQSGCLYRLRALG [F4S], which protein stability index is on record?
Answer: 1.59

Question: Which protein stability index does the source give for YQSVVQFLQYYYQSGCLYRLRALG [F4V] here?
Answer: 4.44

Question: Which protein stability index does the source give for YQSMVQFLQYYYQSGCLYRLRALG [F4M] here?
Answer: 2.91

Question: With YQSYVQFLQYYYQSGCLYRLRALG [F4Y] as the variant, how does the protein stability index read?
Answer: 2.38

Question: Which protein stability index does the source give for YQSRVQFLQYYYQSGCLYRLRALG [F4R] here?
Answer: 1.62

Question: For YQSAVQFLQYYYQSGCLYRLRALG [F4A], which protein stability index is on record?
Answer: 3.21

Question: For YQSCVQFLQYYYQSGCLYRLRALG [F4C], which protein stability index is on record?
Answer: 3.14

Variants of: B2
Experiment: as above
Conditions: c terminus: a fixed tail appended

Question: Which protein stability index does the source give for RVAKKLQSELVWTNCWLIRELNLP [G9E] here?
Answer: 1.72

Question: For RVAKKLQSWLVWTNCWLIRELNLP [G9W], which protein stability index is on record?
Answer: 2.58

Question: Which protein stability index does the source give for RVAKKLQSMLVWTNCWLIRELNLP [G9M] here?
Answer: 3.32

Question: Which protein stability index does the source give for RVAKKLQSTLVWTNCWLIRELNLP [G9T] here?
Answer: 3.22

Question: For RVAKKLQSGLVWTNCWLIRMLNLP [E20M], which protein stability index is on record?
Answer: 1.33

Question: For RVAKKLQSGLVWTNCWLIRTLNLP [E20T], which protein stability index is on record?
Answer: 3.57

Question: Which protein stability index does the source give for RVAKKLQSGLVWTNCWLIRYLNLP [E20Y] here?
Answer: 3.02

Question: Which protein stability index does the source give for RVAKKLQSGLVWTNCWLIRPLNLP [E20P] here?
Answer: 2.22

Question: For RVAKKLQSGLVWTNCWLIRELNEP [L23E], which protein stability index is on record?
Answer: 2.88

Question: With RVAKKLQSGLVWTNCWLIRELNMP [L23M] as the variant, how does the protein stability index read?
Answer: 3.59

Question: Which protein stability index does the source give for RVAKKLQSGLVWTNCWLIRELNQP [L23Q] here?
Answer: 3.48

Question: Which protein stability index does the source give for RVAKKLQSGLVTTNCWLIRELNLP [W12T] here?
Answer: 1.61

Question: For RVAKKLQSGLVETNCWLIRELNLP [W12E], which protein stability index is on record?
Answer: 2.75

Question: With RVAKKLQSGLVPTNCWLIRELNLP [W12P] as the variant, how does the protein stability index read?
Answer: 3.58

Question: For RVAKKLQSGLVQTNCWLIRELNLP [W12Q], which protein stability index is on record?
Answer: 1.18

Question: Which protein stability index does the source give for RVAKKLQSGLVSTNCWLIRELNLP [W12S] here?
Answer: 2.38

Question: Which protein stability index does the source give for RVAKKLQSGLVKTNCWLIRELNLP [W12K] here?
Answer: 2.27

Question: Which protein stability index does the source give for RVAKKLQSGLVHTNCWLIRELNLP [W12H] here?
Answer: 2.37

Question: With RVAKKLQSGLVVTNCWLIRELNLP [W12V] as the variant, how does the protein stability index read?
Answer: 1.67

Question: With RVAKKLQSGLVWTNCPLIRELNLP [W16P] as the variant, how does the protein stability index read?
Answer: 1.22

Question: With RVAKKLQSGLVWTNCKLIRELNLP [W16K] as the variant, how does the protein stability index read?
Answer: 2.08

Question: For RVAKKLQSGLVWTNCELIRELNLP [W16E], which protein stability index is on record?
Answer: 1.43

Question: For RVAKKLQSGLVWTNCNLIRELNLP [W16N], which protein stability index is on record?
Answer: 2.1

Question: Which protein stability index does the source give for RVAKKLQSGLVWTNCLLIRELNLP [W16L] here?
Answer: 1.85

Question: Which protein stability index does the source give for RVAKKLQSGLVWTNCFLIRELNLP [W16F] here?
Answer: 2.47

Question: For RVAKKLQSGLVWTNCTLIRELNLP [W16T], which protein stability index is on record?
Answer: 2.09

Question: With RVAKKLQSGLVWTNCQLIRELNLP [W16Q] as the variant, how does the protein stability index read?
Answer: 1.03
